Data taken from patent publication US20200239517A1.

Key:
[1] = molecular target: human polyclonal IgG (Gammanorm) (human); experiment: SPR, ligand on chip; IgG signal left after 0.5M NaOH cycles
[2] = molecular target: human polyclonal IgG (Gammanorm) (human); experiment: SPR, ligand on chip; IgG signal left after 1M NaOH cycles
[3] = molecular target: human polyclonal IgG (Gammanorm) (human); experiment: SPR; ratio to reference Zvar4 after 1M NaOH cycles
[4] = molecular target: human polyclonal IgG (Gammanorm) (human); experiment: SPR; ratio to reference Zvar4 after 0.5M NaOH cycles
[5] = molecular target: human polyclonal IgG (Gammanorm) (human); experiment: SPR; ratio to reference Zvar1 after 0.5M NaOH cycles
[6] = molecular target: human polyclonal IgG (Gammanorm) (human); experiment: SPR; ratio to reference Zvar6 after 0.5M NaOH cycles
[7] = molecular target: IgG1 monoclonal antibody (probe molecule of Example 1); experiment: Biacore SPR, ligand on CM5 chip, IgG1 mAb as probe

Row | Substance | Remaining capacity 100 cycles (%) [1] | Capacity relative to ref. 100 cycles [4] | Capacity after 96-100 cycles [1] | Capacity relative to reference [5] | other results
1 | Zvar(Q9A, N11E, N28A, N43A)4 (designed binder) | 80% | 1.19 |  |  | Remaining capacity 200 cycles (%) [1]: 62%; Remaining capacity 300 cycles (%) [1]: 42%; Remaining capacity 100 cycles (%) [2]: 55%; Capacity relative to ref. 100 cycles [3]: 2.04; Capacity relative to ref. 200 cycles [4]: 1.72; Capacity relative to ref. 300 cycles [4]: 2.62
2 | Zvar(Q9A, N11E, N28A, Q40V, A42K, N43A, L44I)1 (designed binder) |  |  | 65% | 1.35 | 
3 | Zvar(N11K, H18K, D37E, A42R, N43A, L44I)1 (designed binder) |  |  | 59% | 1.31 | 
4 | Zvar(Q9A, N11E, Q40V, A42K, N43A, L44I)6 (designed binder) | 87% |  |  |  | Capacity relative to ref. 100 cycles [6]: 1.3
5 | Zvar(Q9A, N11K, H18K, D37E, A42R, N43A, L44I)1 (designed binder) |  |  | 63% | 1.4 | 
6 | Zvar(Q9A, N11E, Q40V, A42K, N43A, L44I)1 (designed binder) |  |  | 66% | 1.4 | Kd [7]: 1.07 nM; koff [7]: 0.000437 s⁻¹; kon [7]: 410000 M⁻¹ s⁻¹
7 | Zvar(Q9A, N11E, N28A, Q40V, A42K, N43A, L44I)4 (designed binder) | 84% | 1.24 |  |  | 
8 | Zvar(Q9A, N11E, Q40V, A42K, N43A, L44I)4 (designed binder) | 90% | 1.34 |  |  | Remaining capacity 200 cycles (%) [1]: 74%; Remaining capacity 300 cycles (%) [1]: 57%; Remaining capacity 100 cycles (%) [2]: 56%; Capacity relative to ref. 100 cycles [3]: 2.07; Capacity relative to ref. 200 cycles [4]: 2.06; Capacity relative to ref. 300 cycles [4]: 3.56
9 | Zvar(N11E, Q32E, K50R)1 (designed binder) |  |  | 53% | 1.04 | 
10 | Zvar(Q9A, N11E, D37E, Q40V, A42R, N43A, L44I)4 (designed binder) | 84% | 1.17 |  |  | 
11 | parental B domain of Protein A (from UniProt A0A0H3K686 212-269) |  |  |  |  | Reference capacity after 96-100 cycles [1]: 35%
12 | Zvar(Q9A, N11K, H18K, D37E, A42R, N43A, L44I, K50R)1 (designed binder) |  |  | 67% | 1.49 | 
13 | Zvar(N11K, H18K, S33K, D37E, A42R, N43A, L44I, K50R, L51Y)1 (designed binder) |  |  | 67% | 1.46 | 
14 | Zvar(Q9A, N11E, N43A)4 (designed binder) | 81% | 1.21 |  |  | Remaining capacity 200 cycles (%) [1]: 62%; Remaining capacity 300 cycles (%) [1]: 41%; Capacity relative to ref. 200 cycles [4]: 1.72; Capacity relative to ref. 300 cycles [4]: 2.56
15 | Zvar(Q9A, N11K, H18K, S33K, D37E, A42R, N43A, L44I, K50R, L51Y)1 (designed binder) |  |  | 59% | 1.28 | 
16 | Zvar(Q9A, N11E, D37E, Q40V, A42K, N43A, L44I)4 (designed binder) | 81% | 1.13 |  |  | 
17 | Zvar(Q9A, N11E, Q40V, A42K, N43E, L44I)4 (designed binder) | 84% | 1.25 |  |  | Remaining capacity 200 cycles (%) [1]: 65%; Remaining capacity 300 cycles (%) [1]: 48%; Remaining capacity 100 cycles (%) [2]: 54%; Capacity relative to ref. 100 cycles [3]: 2; Capacity relative to ref. 200 cycles [4]: 1.81; Capacity relative to ref. 300 cycles [4]: 3
18 | parental C domain of Protein A (from UniProt A0A0H3K686 270-327) |  |  |  |  | Reference capacity after 96-100 cycles [1]: 49%
